Source: the nanobody polyreactivity screen of Harvey et al. (2022)

test: yeast display, Sf9 membrane polyspecificity reagent, FACS + sequencing; frameworks hold sequencing errors
In short: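 Galactose-induced (36–48 hours) yeast carrying a synthetic nanobody display library were exposed to 10% biotinylated, detergent-solubilized Sf9 membrane reagent at 4 °C for 1 hour. FACS followed streptavidin microbead enrichment, using low and high (top ~1%) gates for expression (anti-HA) and reagent binding (streptavidin). Colony PCR, MiSeq 2 × 250 sequencing and CDR-length filtering followed. Labels for polyreactivity reflect the gate of origin.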

Row | Sequence | polyreactivity (PSR sort gate)
1 | QVRLIESGGGLVQAGGSLRLSCAASGFTFFGNAMGWYRQAPGKERELVASISGSGTRTYYADSVKGRFTISRDNAKNTVYLQMNSLKPEDTAVYYCAARGSYSHGINYYWGQGTQVTVSS | high polyreactivity
2 | QVRLVESGGCLVQAGGSLRLSCAASGSTFRRYAMGWYRQAPGKERELVAAITVGGGSTYYADSVKGRFTISRDNAKNTVYLQMNSLKPEDTAVYDCSVSRYPYFRYDYWGQGTQVTVSS | high polyreactivity
3 | QVRLVESGGGLVQAGGSLRLSCAASGFIFRNNAMGWYRQAPGKERELVAVISFSGGSTYYADSVKGRFTISRDNAKNTVSLQMNSLKPEDTAVYYCTAKGWYYTRRSDYWGQGTQVTVSS | low polyreactivity
4 | QVRLVESGGGLVQAGGSLRLSCAASGRIFVGYGLGWYRQAHGKERELVAAITSSGGSTYYADSVKGRFTISRDNAKNTVYLQMNSLKPEDTAVYYCAAERGYHGGVSGLYDYWGQGTQVTVSS | low polyreactivity
5 | QVRLVESGGGLVQAGGSLRLSCAASGRILQVYAMGWYRQAPGKERELVAGIRSSGGRTYYADSVKGRFTISRDNAKNTVSLQMNSLKPEDTAVYYCAADQDWYGFVIGFDYWGQGTQVTVSS | low polyreactivity
6 | QVRLVESGGGLVQAGGSLRLSCAASGSIFSPYAMGWYRQAPGKERELVAALSYGVGNTYYADSVKGRFTISRDNAKNTVYLQMNSLKPEDTAVYYCAAEEYDYVYPHYFTKGYYWGQGTQVTVSS | high polyreactivity
7 | QVRLVESGGGLVQAGGSLRLSCAAYGSTFKTYAMGWYRPAPGKERELVAAISAGGGSTYYADSVKGRFTISRDNAKNTVYLQMNSLKPEDTAVYYCAAAYIYAGWDYEYWGQGTQVTVSS | low polyreactivity
8 | QVRLVESGGGLVQAGGSLRLSCADSGSTLDINAMGWYTQAPGKERELVASISWTGGHTYYADSVKGRFTISRDNAKNTVYLQMNSLKPEDTAVYYCAATHQETVYYFLSIFDDWGQGTQVTLSS | low polyreactivity
9 | QVRLVESGGGLVQEGGSLRLSCAASGSTFGDYPMGWYRQAPGKERELVAAITLTGGSTYYADSVKGRFTISRDNAKNTVYLQMNSLKPEDTAVYYCNTDVIRWVGGTWHRYYYWGQGTQVTVSS | low polyreactivity
10 | QYQLVESGRGLVQAGGSLRLSCAASGSTFRSYAMGWYRQAPGKERDLVAAITSSGGRTYYADSVKGRFTISRDNAKNTVYLQMNSLKPEDTAVYYCAARTYSWGDWGQGTQVTVSS | high polyreactivity
11 | RVQHVESGGGLVQAGGSLRLSCAASGYTFEAYAMGWYRPAPGKERELVAAINYSGGSTYADSVKGRFTISRDNAKNNVYLQMHSLKPEDTAVYYCATRLYGYWTYGFDYWGQGTQVTVSS | low polyreactivity
12 | RVQLQESGGGLVQAGGSLRLSCAASGTIFIRGDMGWYRQAPGKEREFVATIETGSNTYYADSEKGRFTISRDNAKNAVYLEMNCLKPGDTAVYYCVVDYQLSGRLRYWGQGTQVTLSS | low polyreactivity
13 | RVQLQESGGGLVQAGGSLRLSCAASGTIFNRGDMGWYRQAPGKEREFVATIDTGSNTYYADSEKGPFTISRDNAKNAVYLQMNCLKPGATAVYYCVVDYQLSGRLRYWGQGTQVTLSS | low polyreactivity
14 | RVQLVESGGGLFHAGGSLRLSCAASGRTFPTYDMGWYRQAPGKERELVAAINWSGGSTYYADSVKGRFTISRDNAKNTVYLQINSLKPEDTAVYYCNAELLRPSTLGVYLARNYWGQGSQVTVSS | low polyreactivity
15 | RVQLVESGGGLVHAGCSLRLSCAASGNTFWYNAMGWYRQAPGKVRELVAAISYSGGGTYYADSVKGRFTISRDNAKNTVYLQMNSLKPEDTAVYYCAADTLQRSFVLYDYWGHGTQVTVSS | high polyreactivity
16 | RVQLVESGGGLVKAGGSLRLSCAASGSIFYQYTMGWYRQAPGKERELVATISWSDVSTYYADSVKGRFTISRDNAKNTVYLQMNSLKPEDTAVYYCAALYWGWDRYYGYDYWGQGTQVTVSS | low polyreactivity
17 | RVQLVESGGGLVQAGGILRLSSAASGSTFPANAMGWYRQAPGKERELVAAITWRAASTYYADSVKGRFTISRDNAKNTVYLQMNSLKPEDTAVYYCARVTNSSAKNTDDYWGQGTQVTVSS | low polyreactivity
18 | RVQLVESGGGLVQAGGSLRLSCAASGRIFKYYAMGWYRPAPGTERELVASITIGSTTYADSVKGRFTISRDNAMNTVYLHMNSLKPEDTAVYYCNRVYRQRLGRDYWGQGTQVTVSS | high polyreactivity
19 | RVQLVQSGGGLVQAGGSLRLSCAASGRIFSYNAMGWYRQAPGKERELVAAITFSGGGTYYADSVKGRFTISRDNAKNTVYLQMNSLIPEDTAVYYCNKVSYGYSTYGYWGQGTQVTVSS | low polyreactivity
20 | VQLVESGGGLVQAGGSLRLSCAACGSTFYPYAMGWYRPAPGKERELVAAISYSGGSTYYADSVKGRFTISRDNAKNTVYLQMNSLKPEDTAVYYCAARYWYKRFVWGDYWGQGTQVTVSS | high polyreactivity
